Target: AriA (Escherichia coli strain B185)
Assay: cryo-EM structure

Substance: AriA (natural protein)
- stoichiometry N: 6

Source: paper PMC10802454
